Assay type in all cases: biochemical, Moorena bouillonii
Details in all cases: Fe2+ and molecular oxygen required

Substrate in data set [1]: CC1=N[C@@H](C(=O)O)CS1
In words: kinetic analysis of 2-methylthiazole formation.

Substrate in data set [2]: CC1=N[C@H](C(=O)O)CS1
The data set can be described thus: kinetic analysis of 2-methylthiazole formation.

Substrate in data set [3]: O=C(O)[C@@H]1CSC(c2ccccc2)=N1
In words: kinetic analysis of 2-phenylthiazole formation.

B1: LynB7 (Moorena bouillonii) (protein)
chain: MVKTYEIIDADSHVLEPLDLWEKYLEPEFKHFAPKEDYKLEGEPILYKFNPSDFVESEAAKRAQEDPDIYKGGYDPKARVELMEQMGSDMTFLYPTIGLWMWSVDTMDSKLAGAFVRSYNNWLHDFCNYAPQKLKGIGAINQHDPEEMVPELQRIVEFGWKAVFIRPNPVKGRILSDPVYEPFWSECERLNVAVTVHEGTHSRLPTTGADRFDSRFALHACSHPMEQMMALLALIEGGVLERHPQLRVGFFESGCGWLPYWLWRLDEEYENLYYEVKDNVKMKPSEYFHRQCYTGFEVDEPYLAELIEYIGADKLLFGSDFPHMDHPNFIESVDETLALREKLPEDVIKKILHDNPLRYYGLT
Regarding B1, the Km in data set [1] turned out to be 3600 ± 700 µM; in data set [2], 2100 ± 200 µM; in data set [3], 1500 ± 300 µM. The kcat in data set [1] came to 1.3 ± 0.1 s^–1; in data set [2], 17 ± 0.7 s^–1; in data set [3], 11 ± 0.5 s^–1.

In general, Km refers to the concentration of substrate that gives half-maximal velocity.
